Test results from patent US20220204638A1, “Combination Therapies Comprising Daratumumab, Bortezomib, Thalidomide and Dexamethasone and Their Uses” (Janssen Biotech, Inc., priority 2019, published 2022).

Assays:
[1] = tested on: relapsed or refractory multiple myeloma; assay: GEN501 (NCT00574288) open-label dose escalation monotherapy trial; assay type: in vivo, human
Description: Treatment continued until unacceptable toxicity or disease progression.
Seventy-four percent of patients had received prior ASCT. Prior therapies included bortezomib (100%), lenalidomide (95%), pomalidomide (36%) and carfilzomib (19%).

[2] = Storage of diluted DARZALEX solution; assay type: physicochemical
Description: Prepare the solution for infusion using aseptic technique as follows: • Calculate the dose (mg), total volume (mL) of DARZALEX solution required and the number of DARZALEX vials needed based on patient actual body weight. • Check that the DARZALEX solution is colorless to pale yellow. […] Infusion bags/containers must be made of either polyvinylchloride (PVC), polypropylene (PP), polyethylene (PE) or polyolefin blend (PP+PE). Dilute under appropriate aseptic conditions. Discard any unused portion left in the vial. • Gently invert the bag/container to mix the solution. […] The diluted solution may develop very small, translucent to white proteinaceous particles, as daratumumab is a protein. […] (59° F.-77° F.) and in room light. Diluted solution may be kept at room temperature for a maximum of 15 hours (including infusion time). • If not used immediately, the diluted solution can be stored prior to administration for up to 24 hours at refrigerated conditions 2° C.-8° C. (36° F.-46° F.) and protected from light.

[3] = tested on: relapsed and refractory multiple myeloma; assay: DARZALEX monotherapy safety, three open-label clinical trials (N=156); assay type: in vivo, human
Description: Serious adverse reactions were reported in 51 (33%) patients.
Table 23 describes Grade 3-4 laboratory abnormalities reported at a rate of ≥10%.

DARZALEX: IgG1κ human monoclonal antibody against CD38, HC SEQ ID NO: 9 and LC SEQ ID NO: 10
Overall response rate ([1]; 16 mg/kg, 42 patients): 36% | number of CR ([1]; 16 mg/kg, 42 patients): 1 | number of VGPR ([1]; 16 mg/kg, 42 patients): 3 | median duration of response ([1]; in vivo): not estimable | median time to response ([1]; in vivo): 1 month | time diluted solution can be stored refrigerated ([2]; 2-8 °C, protected from light): up to 24 hours | time diluted solution may be kept at room temperature ([2]; 15-25 °C, including infusion time): ≤ 15 h | Serious adverse reactions ([3]; 16 mg/kg monotherapy): 33% | Arthralgia, Any Grade ([3]; human, in vivo): 17% | Arthralgia, Grade 3 ([3]; human, in vivo): 0% | Arthralgia, Grade 4 ([3]; human, in vivo): 0% | Back pain, Any Grade ([3]; human, in vivo): 23% | Back pain, Grade 3 ([3]; human, in vivo): 2% | Back pain, Grade 4 ([3]; human, in vivo): 0% | Chills, Any Grade ([3]; human, in vivo): 10% | Chills, Grade 3 ([3]; human, in vivo): 0% | Chills, Grade 4 ([3]; human, in vivo): 0% | Constipation, Any Grade ([3]; human, in vivo): 15% | Constipation, Grade 3 ([3]; human, in vivo): 0% | Constipation, Grade 4 ([3]; human, in vivo): 0% | Cough, Any Grade ([3]; human, in vivo): 21% | Cough, Grade 3 ([3]; human, in vivo): 0% | Cough, Grade 4 ([3]; human, in vivo): 0% | Decreased appetite, Any Grade ([3]; human, in vivo): 15% | Decreased appetite, Grade 3 ([3]; human, in vivo): 1% | Decreased appetite, Grade 4 ([3]; human, in vivo): 0% | Diarrhea, Any Grade ([3]; human, in vivo): 16% | Diarrhea, Grade 3 ([3]; human, in vivo): 1% | Diarrhea, Grade 4 ([3]; human, in vivo): 0% | Dyspnea, Any Grade ([3]; human, in vivo): 15% | Dyspnea, Grade 3 ([3]; human, in vivo): 1% | Dyspnea, Grade 4 ([3]; human, in vivo): 0% | Fatigue, Any Grade ([3]; human, in vivo): 39% | Fatigue, Grade 3 ([3]; human, in vivo): 2% | Fatigue, Grade 4 ([3]; human, in vivo): 0% | Headache, Any Grade ([3]; human, in vivo): 12% | Headache, Grade 3 ([3]; human, in vivo): 1% | Headache, Grade 4 ([3]; human, in vivo): 0% | Hypertension, Any Grade ([3]; human, in vivo): 10% | Hypertension, Grade 3 ([3]; human, in vivo): 5% | Hypertension, Grade 4 ([3]; human, in vivo): 0% | Infusion reaction, Any Grade ([3]; human, in vivo): 48% | Infusion reaction, Grade 3 ([3]; human, in vivo): 3% | Infusion reaction, Grade 4 ([3]; human, in vivo): 0% | Musculoskeletal chest pain, Any Grade ([3]; human, in vivo): 12% | Musculoskeletal chest pain, Grade 3 ([3]; human, in vivo): 1% | Musculoskeletal chest pain, Grade 4 ([3]; human, in vivo): 0% | Nasal congestion, Any Grade ([3]; human, in vivo): 17% | Nasal congestion, Grade 3 ([3]; human, in vivo): 0% | Nasal congestion, Grade 4 ([3]; human, in vivo): 0% | Nasopharyngitis, Any Grade ([3]; human, in vivo): 15% | Nasopharyngitis, Grade 3 ([3]; human, in vivo): 0% | Nasopharyngitis, Grade 4 ([3]; human, in vivo): 0% | Nausea, Any Grade ([3]; human, in vivo): 27% | Nausea, Grade 3 ([3]; human, in vivo): 0% | Nausea, Grade 4 ([3]; human, in vivo): 0% | Pain in extremity, Any Grade ([3]; human, in vivo): 15% | Pain in extremity, Grade 3 ([3]; human, in vivo): 1%
